Experimental findings from PMC2504289 are described below.

The data set concerns the target T1, CH1° 0p (unphosphorylated C-terminal domain of histone H1°) (UniProt P10922 98-194).
T1 sequence: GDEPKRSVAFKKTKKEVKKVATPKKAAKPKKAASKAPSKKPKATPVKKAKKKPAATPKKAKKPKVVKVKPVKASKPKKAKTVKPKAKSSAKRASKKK
Description: EMSA. (In EMSA bound probe runs differently from free probe, usually more slowly.)

B1: 50 bp dsDNA fragment (dsDNA)
DNA 1: CTATGATATATAGATAGTTAATGTAATATGATATAGATATAGGGATCC
DNA 2: GGATCCCTATATCTATATCATATTACATTAACTATCTATATATCATAG
Turning to B1, the binding result is recorded as “binds”.
